The values that follow are results of earlier work, collected in PMC5268426.

For data set [1], the target named is Prostasin (Homo sapiens) (UniProt Q16651).
Data set [2] addresses Pancreatic trypsin inhibitor (PTI) (Bos taurus) (UniProt P00974).
The target is the same in data set [3]. This is another data set of the same source.

Where two headings read alike, the source gives them in different places.

As for HAI-2 (from UniProt O43291), the Ki in data set [1] is 5 nM.

For Trypsin (from UniProt P00760), the Kd in data set [2] is 0.06 pM.

With Trypsinogen (from UniProt P00760), the Kd in data set [3] is 2000 nM.
